Data: publication doi:10.1101/2020.10.06.327809 (bioRxiv, 2020)

Molecular target: the molecule itself
Experiment: SEC

B1: SepF-His (H. volcanii SepF expressed in E. coli, plasmid pSVA3969) (natural protein, Haloferax volcanii, UniProt D4H018 1-118, looked up)
chain: MGIMSKILGGGGSRTTEDYVELDLDDFDTARGDAGLSVHIAEIGGQQDVIAIKDAVYDGNLVIADITRHTTSDSTMEHIIDDLRQVAREVDGDIVQKGDDQIVITPTGISISRQKLNG
Question: B1 was tested. Which “stoichiometry N” value did it give?
Answer: The value was 2.
